{
  "source": "patent US20190309079A1",
  "about": "(Regeneron, published 2019)",
  "key": {"[1]": {"biological_target": "T1, LEPR-P316T (signaling-impaired mutant) on HEK293 reporter cells (human, UniProt P48357 22-1165)", "T1 sequence": "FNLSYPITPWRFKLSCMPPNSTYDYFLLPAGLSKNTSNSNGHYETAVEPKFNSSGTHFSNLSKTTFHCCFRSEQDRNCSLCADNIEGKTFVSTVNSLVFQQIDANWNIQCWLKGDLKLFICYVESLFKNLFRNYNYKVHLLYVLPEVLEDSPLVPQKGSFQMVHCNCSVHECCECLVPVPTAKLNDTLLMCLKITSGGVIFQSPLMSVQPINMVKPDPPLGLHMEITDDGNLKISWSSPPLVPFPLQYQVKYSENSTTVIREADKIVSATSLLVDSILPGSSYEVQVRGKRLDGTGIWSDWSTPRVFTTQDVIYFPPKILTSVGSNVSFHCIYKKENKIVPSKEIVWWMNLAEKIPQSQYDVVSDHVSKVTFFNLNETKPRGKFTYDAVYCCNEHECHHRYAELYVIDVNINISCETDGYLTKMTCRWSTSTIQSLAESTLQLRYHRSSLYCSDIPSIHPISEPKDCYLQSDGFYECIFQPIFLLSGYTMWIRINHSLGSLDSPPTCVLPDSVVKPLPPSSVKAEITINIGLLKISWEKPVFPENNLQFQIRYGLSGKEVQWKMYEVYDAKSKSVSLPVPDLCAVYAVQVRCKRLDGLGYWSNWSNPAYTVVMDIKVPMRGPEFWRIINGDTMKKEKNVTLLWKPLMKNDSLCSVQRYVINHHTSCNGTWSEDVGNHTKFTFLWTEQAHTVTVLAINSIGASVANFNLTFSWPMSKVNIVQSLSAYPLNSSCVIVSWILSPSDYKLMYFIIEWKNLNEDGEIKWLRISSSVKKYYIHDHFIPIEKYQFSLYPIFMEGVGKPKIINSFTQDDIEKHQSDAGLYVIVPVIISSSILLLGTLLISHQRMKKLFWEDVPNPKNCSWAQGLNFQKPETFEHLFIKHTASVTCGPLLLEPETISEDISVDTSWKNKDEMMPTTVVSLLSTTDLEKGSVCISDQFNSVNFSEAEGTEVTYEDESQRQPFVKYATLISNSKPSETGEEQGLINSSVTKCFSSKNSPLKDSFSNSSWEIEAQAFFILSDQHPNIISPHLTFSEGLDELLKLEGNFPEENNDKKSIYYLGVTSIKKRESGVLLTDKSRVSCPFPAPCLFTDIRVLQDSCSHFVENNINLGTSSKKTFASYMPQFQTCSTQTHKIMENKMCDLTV", "test": "cell-based or functional assay"}, "[2]": {"biological_target": "T2, LEPR-A409E (signaling-defective mutant) on HEK293 reporter cells (human, UniProt P48357 22-1165)", "T2 sequence": "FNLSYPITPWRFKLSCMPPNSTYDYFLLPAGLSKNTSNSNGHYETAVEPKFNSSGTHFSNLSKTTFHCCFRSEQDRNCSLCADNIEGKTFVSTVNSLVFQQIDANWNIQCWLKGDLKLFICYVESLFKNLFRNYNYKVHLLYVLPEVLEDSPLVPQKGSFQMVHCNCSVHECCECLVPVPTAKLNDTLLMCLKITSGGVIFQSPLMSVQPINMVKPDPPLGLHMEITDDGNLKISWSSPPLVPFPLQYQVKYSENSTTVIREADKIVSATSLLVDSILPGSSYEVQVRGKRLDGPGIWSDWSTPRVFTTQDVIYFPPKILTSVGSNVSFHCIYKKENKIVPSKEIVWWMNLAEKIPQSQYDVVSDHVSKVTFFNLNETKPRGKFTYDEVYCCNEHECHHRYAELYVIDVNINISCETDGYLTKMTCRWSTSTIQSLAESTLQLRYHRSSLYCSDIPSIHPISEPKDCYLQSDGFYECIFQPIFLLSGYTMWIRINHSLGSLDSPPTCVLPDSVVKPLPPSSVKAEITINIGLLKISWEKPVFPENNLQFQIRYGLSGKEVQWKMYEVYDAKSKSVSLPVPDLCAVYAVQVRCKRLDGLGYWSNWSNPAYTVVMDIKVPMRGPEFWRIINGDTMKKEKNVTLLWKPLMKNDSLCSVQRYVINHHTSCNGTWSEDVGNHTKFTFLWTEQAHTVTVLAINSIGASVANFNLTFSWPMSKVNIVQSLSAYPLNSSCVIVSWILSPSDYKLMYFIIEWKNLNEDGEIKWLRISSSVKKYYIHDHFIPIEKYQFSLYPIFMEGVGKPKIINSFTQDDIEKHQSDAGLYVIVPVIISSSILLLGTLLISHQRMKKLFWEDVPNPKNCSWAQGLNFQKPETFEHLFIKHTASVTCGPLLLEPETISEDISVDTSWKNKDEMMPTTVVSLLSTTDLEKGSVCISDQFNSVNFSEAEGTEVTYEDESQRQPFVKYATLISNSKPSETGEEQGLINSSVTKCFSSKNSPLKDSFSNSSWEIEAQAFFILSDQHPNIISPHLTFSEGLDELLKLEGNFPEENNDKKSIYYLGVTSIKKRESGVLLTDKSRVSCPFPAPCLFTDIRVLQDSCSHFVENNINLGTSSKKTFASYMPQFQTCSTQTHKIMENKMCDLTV", "test": "cell-based or functional assay"}},
  "data": [
    {"binder": "H4H16679P2 (antibody, V domains shown) VH: QVQLVESGGGVVQPGRSLRLSCTASGFTFSSYAMYWVRQAPGKGLEWVSVIYYDGSYKYYADSVKGRFTISRDNSKNTLYLQMDSLRAEDTAVYYCASYNWNYWYFDFWGRGTLVTVSS VL: not shown", "values": [
      {"measurement": "EC50 (read off the curve), pSTAT3 Y705/STAT3 densitometry", "setting": "[1]", "value": "~3e-10", "unit": "M"},
      {"measurement": "EC50 (read off the curve), pSTAT3 Y705/STAT3 densitometry", "setting": "[2]", "value": "~6e-10", "unit": "M"}
    ]}
  ]
}
